Experimental data: the supplement of paper PMC10567573

B1: C2CD2L (parent)
chain: EPAGSLRELGVWRSLLRLRATRAG
B2: FAM164C (parent)
chain: YPHCTGISQQDPESDSQGQGNGLF

Variants of: B1
Experiment: protein stability index of a GFP-peptide fusion (GPS, HEK-293T) (PSI 1-6); higher = more stable
Details: c terminus: a fixed tail appended
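Note: lentivirally expressed fusions sorted by FACS into six bins by GFP to DsRed ratio, PSI derived from sequencing read proportions per bin multiplied by bin number.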

Variant	protein stability index
EPAGSLRELGAWRSLLRLRATRAG	2.61
EPAGSLRELGDWRSLLRLRATRAG	3.74
EPAGSLRELGYWRSLLRLRATRAG	2.21
EPAGSLRELGLWRSLLRLRATRAG	2.17
EPAGSLRELGVWRSLLELRATRAG	3.13
EPAGSLRELGVWRSLLCLRATRAG	2.15
EPAGSLRELGVWRSLLDLRATRAG	3.73
EPAGSLRELGVWRSLLFLRATRAG	1.95
EPAGSLRELGVWRSLLALRATRAG	2.91
EPKGSLRELGVWRSLLRLRATRAG	2.04
EPTGSLRELGVWRSLLRLRATRAG	2.93
EPLGSLRELGVWRSLLRLRATRAG	1.59
EPPGSLRELGVWRSLLRLRATRAG	1.63
EPIGSLRELGVWRSLLRLRATRAG	2.84
EPFGSLRELGVWRSLLRLRATRAG	1.47
EPMGSLRELGVWRSLLRLRATRAG	2.19
EPWGSLRELGVWRSLLRLRATRAG	1.97
EPEGSLRELGVWRSLLRLRATRAG	2.65
EPVGSLRELGVWRSLLRLRATRAG	2.77
ENAGSLRELGVWRSLLRLRATRAG	1.5
ERAGSLRELGVWRSLLRLRATRAG	2.41
EHAGSLRELGVWRSLLRLRATRAG	1.42

Variant	protein stability index
EGAGSLRELGVWRSLLRLRATRAG	1.1
ETAGSLRELGVWRSLLRLRATRAG	1.93
EEAGSLRELGVWRSLLRLRATRAG	2.5
EVAGSLRELGVWRSLLRLRATRAG	1.82
EAAGSLRELGVWRSLLRLRATRAG	2.08
EYAGSLRELGVWRSLLRLRATRAG	2.04
EPAGSIRELGVWRSLLRLRATRAG	2.2
EPAGSARELGVWRSLLRLRATRAG	3.35
EPAGSSRELGVWRSLLRLRATRAG	2.95
EPAGSWRELGVWRSLLRLRATRAG	2.39
EPAGSCRELGVWRSLLRLRATRAG	2.17
EPAGSKRELGVWRSLLRLRATRAG	2.36
EPAGSTRELGVWRSLLRLRATRAG	2.83
EPAGSMRELGVWRSLLRLRATRAG	2.45
EPAGSLMELGVWRSLLRLRATRAG	2.92
EPAGSLIELGVWRSLLRLRATRAG	1.64
EPAGSLWELGVWRSLLRLRATRAG	1.75
EPAGSLLELGVWRSLLRLRATRAG	2.44
EPAGSLPELGVWRSLLRLRATRAG	3.35
EPAGSLEELGVWRSLLRLRATRAG	2.29
EPAGSLAELGVWRSLLRLRATRAG	3.16
EPAGSLHELGVWRSLLRLRATRAG	2.67

Variant	protein stability index
EPAGSLKELGVWRSLLRLRATRAG	2.07
EPAGSLFELGVWRSLLRLRATRAG	1.14
EPAGSLCELGVWRSLLRLRATRAG	1.74
EPAGSLGELGVWRSLLRLRATRAG	3.07
EPAGSLRELSVWRSLLRLRATRAG	3.18
EPAGSLRELLVWRSLLRLRATRAG	2.02
EPAGSLRELNVWRSLLRLRATRAG	4.3
EPAGSLRELWVWRSLLRLRATRAG	1.67
EPAGSLRELMVWRSLLRLRATRAG	1.99
EPAGSLRELIVWRSLLRLRATRAG	1.86
EPAGSLRELTVWRSLLRLRATRAG	2.9
EPAGSLRELDVWRSLLRLRATRAG	2.99
EPAGSLRELHVWRSLLRLRATRAG	3.78
EPAGSLRELGVWRSKLRLRATRAG	2.96
EPAGSLRELGVWRSTLRLRATRAG	2.5
EPAGSLRELGVWRSNLRLRATRAG	3.47
EPAGSLRELGVWRSPLRLRATRAG	3.76
EPAGSLRELGVWRSDLRLRATRAG	3.67
EPAGSLRELGVWRSMLRLRATRAG	2.48
EPAGSLRELGVWRSELRLRATRAG	4.27
EPAGSLRELGVWRSQLRLRATRAG	3.84
EPAGSLRELGVWRSGLRLRATRAG	3.51

Variants of: B2
Experiment: as above
Details: c terminus: a fixed tail appended

Variant	protein stability index
YPHCTYISQQDPESDSQGQGNGLF	2.77
YPHCTGISQQDPESDSQGQGHGLF	3.75
YPHCTGISQQDPESDSQGQGEGLF	4.86
YPHCTGISQQDPESDSQGQGAGLF	3.83
WPHCTGISQQDPESDSQGQGNGLF	4.43
QPHCTGISQQDPESDSQGQGNGLF	5.36
YPHCTGISQQDPESDSDGQGNGLF	3.26
YPHCTGISQQDPESDSMGQGNGLF	3.8
YPHCGGISQQDPESDSQGQGNGLF	2.93
YPHCTGISQQDPESDSQGGGNGLF	4.21
YPHITGISQQDPESDSQGQGNGLF	3.72
YPHCTGISQQDPECDSQGQGNGLF	3.54
YPHCTGISQIDPESDSQGQGNGLF	3.64
YPHCTGISQPDPESDSQGQGNGLF	3.78
YPHCTGISQQDPESDSQGQGNYLF	3.03
YVHCTGISQQDPESDSQGQGNGLF	1.91
YPHCTGISQQDPESDSQGQANGLF	3.12
YPHCTGINQQDPESDSQGQGNGLF	3.39
YPHCTGIPQQDPESDSQGQGNGLF	3.91
YPHCTGIYQQDPESDSQGQGNGLF	2.75
YPHCTGISQQDPMSDSQGQGNGLF	3.21
YPHCTGISQQDPESDVQGQGNGLF	3.69
YPHCTGISRQDPESDSQGQGNGLF	3.68
YPHCTGISYQDPESDSQGQGNGLF	3.11
YPHCTGISEQDPESDSQGQGNGLF	3.89
YPHCTGISQQDPESDSQLQGNGLF	3.42
YPCCTGISQQDPESDSQGQGNGLF	3.1
YPICTGISQQDPESDSQGQGNGLF	4.18
